Source: a protein production outcome set (Wang et al. 2014)

Assay: label from the status in PepcDB records
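Also: failed if final PepcDB status was selected cloned or expressed and not failed if soluble or beyond.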

Sequence	protein production
MYLTLTIAAMPAYNEAHVIAEVILGCKKYVDNVIVVDDGSSDNTAEVARSAGGYVVKHEVNKGYGAALKSCFKLAREFNADVMIIMDSDGQHNPDEIPRLLEPLKHGADLVIGSRFINGNGKNVPAYRKVGMKILDIATYLAGGILVTDSQSGFRAYGKKAIENVRFDGNNMSAGSEILLYIKDHNLKFTEVEIHCRYDLDQCSSQNPFLHGMEVAFQILKNMGFRRPLYYFTVPGILLIAAGLLIEIAFLHLVGSFGFGVISLIFLMILTGIFMVFTGVILHLVSKMISQIVPGQKGTESLNDGF	failed
MYLTREEERILAGEEGEARAKALEVIVKVGEAVGAERLIPIKHAHVSGASYMTIGDAGLRFLARLAESGARFSVPTTVNPVSYDVEEPGAIPMTRLSPRIVKAQSEILKALEAMGADLILTCTPYYTEVPRRVGLREGDSVAWGESSAVAYANSVLGIHTNREGGPLALMAGIAGRTYFYGAHDPEWRKPRVAYRLETPKVLDETEAGVLGEVIATQHRDEHPPLLDAPLGGEAALKEFSAAVGSAGSLAMVHITGVTPGDPGDMIEEVVTMDYGDLARRMEDLAPGFEPDILYVGCPHASIEELRRLYRALSKAGERAGRRTVVSISRSLYLQALREGLVEKLKGLGVRFVRDSCLIVSPFSSGARGVRVATNSYKAYFYLSKKGVEVGLAPIEALPKLVS	failed
MYLTVTPLSIVALTTAPPYFDTNGSISVPPPPNVIRSGLYESITLEYHKYTIKYCLTLITQTILFFLIVVCSMKVVIFGGTGLIGRAIYSSLPHDFYIVSRSAKGQEGQAHIIGLDEIDKIKECDVVINLSGYSIASKRWNRKVKEEIVRSRIDTTRLVVNFIRNLEKKPSAFLSGSAIGFYGHNTNKELTEEDPFGSGFLADLARSWEEEAMQADGICRTVLLRTANFLSPKGGFLSALINPKSKNVMYFGDGRQPVSWMHYADYVKAVEFVIENASIAGPVNMSSPQPVTFKEFAEAFSKSLGSHIRSIPEFLGKIALGSEMYRELMSGQKVIPKKLIQAGFKFDFPDINTAASSIASLMK	failed
MYMILELLNIIGIIAFTISGSLKGTNKGLDIFGVVTLGVITSYAGGIIADILLGIYPPQILKELNYLLLSVGISIFVFYFYKWLQTNPIKMIIAISDAVGLSTFATLGASLAYSYGLNPISVGLIAAIVGTGGGVIRDVLVNEIPMVLTKEIYATAALLSGFIYYFTTPYLHHDSLFVAFLGSFLLRILSIKYNFNLPKREDNKS	failed
MYMKHIENGTRIEGEYIKNKVIQYNMSILTDEVKQPMEEVSLVVKNEEGKIFGGVTGTMYFYHLHIDFLWVDESVRHDGYGSQLLHEIEGIAKEKGCRLILLDSFSFQAPEFYKKHGYREYGVVEDHPKGHSQHFFEKRL	not failed
MYNPVGVAAIGLGRWAYVMADAYTKSEKLKLVTCYSRTEDKREKFGKRYNCAGDATMEALLAREDVEMVIITVPNDKHAEVIEQCARSGKHIYVEKPISVSLDHAQRIDQVIKETGVKFLCGHSSRRLGALRKMKEMIDTKEIGEVSSIEAVFSNERGLELKKGNWRGEPATAPGGPLTQLGVHQIDNLQFLLGPVARVFNFGKPMYTEVENITVNQTLLEFEDGKQAYLGTNWACPGVFSINVYGTKANLFYQLDFSWWSNSDVTDEHSTLIKREFASMSDDPDNRILRDVKVDFESVDHLRVEVEEVADVIRNGGETEIGAEASLRNLAVVLAAVKSVHEKRPVEIAEIIG	not failed
MYNRPNWQRRRRSLLVLVLGLLFLGFLIQPSYQWTKTNVAAMAGRHDSQMSPIIMIPGSSATQNRFDTLVKQLNKADHRRHSLIKLTVMTDDTIKMTGSLRARDNEPIIVVGFQNNRDGYDNIKHQARWFSLAFKKLAAKYQFNNFKAIGHSNGGLIYTYYFEHYFNRDDIKVKRIMTIGSPYNFSEANLNHKTQMLADFIKYRDRLPKSATMYSVAGTENYDSDGLVPARSVEAGKYIYQGQVKHFTEITVTGTNAQHSDLPQNAQIVTLIRTYMLDKPKQTRKGLVSTGTVE	failed
MYNSATVIYQNLLKSTPKKASEYYYYLGDICWRKEKTDSAKYYFMEGIKTDETYAMNYVGIGIITMKSNATEGQRSFDKALQMTSQKNSQVLNAIGEYYILEADKAELPKGIALLKKSTEIDAKNAMSWILLGDAYGKQAEGSKQAESYGKAANLFHSVPLLKMKYGKMYAAARNKDLSIKYYNEGLAADPTYGPIYRELGDLYNRFRQYDLAIQNYKKYLTYIDSNDDVEFRYADFLFKNNNYAEAIEVFNKLEAKKYNSPYIYNRRAVCYYELAKYDLAQKDIETYFSKVNATKAKSADFEYYGKILMKKGQDSLAIQQYQAAVDRDTTRLDMYGQIGSYFYNKGNFPLAIQYMSKQIRPTTTDPKVFYELGQAYYYNKEYVKADSSFVKVLELKPNIYIGYLWRARANAAQDPDTKQGLAKPYYEKLIEVCAPGGAKYKDELIEANEYIAYYYTINRDKVKADAAWKNILALDPTNKKAIDGLKMK	failed
MYPDLVHLGGADKYFEEILEIVNKIKLFGDFSNEEVRYLCSYMQCYAAPRDCQLLTEGDPGDYLLLILTGEVNVIKDIPNKGIQTIAKVGAGAIIGEMSMIDGMPRSASCVASLPTDFAVLSRDALYQLLANMPKLGNKVLIRLLQLLTARFRESYDRILPKTLGELI	not failed
MYPLAFAKEGEEVIVKKIDAGCGAMQRLVSMGINIGSKLKVIRNQNGPVIISTKGSNIAIGRGLAMKIMVEDAEYGGENEKLLEHHHHHH	failed
MYRNDPILPTFALILAAGLFYAAYLDGRHIARLLGHVPEELSVGQIGLMAFGAVLLLYGLMGLVSYWLEGIELRPGRHFPTPSTAPVAAGVILVLLLTALSGFFVRLLVYSAQTGHNPTWLQGLIFGSISLVVAALFGIYRRFFGREEVITEEEKSEFPW	failed
MYSDKKNILQLVALLKAHGVRKIVLCPGSRNAAIVHTLANIEDFTCYSVTDERSAGFFAIGLSLQGGGPAAVCCTSGSALLNLHPAVAEAFYQQVPLIVISADRPAAWIGQMDGQTLPQPHVFGTLVKMSVNLPEVHTEEDEWFCNRLINEAILETTHHGKGPVHINVPISEPIYRFTAKTLPEVRVITRYQGL	failed
MYTECAYITVINNKARLFFMNMKTSFIAAAVALATVYSFSVSAVQKDITVTANIDSTLELLQADGSSLPSTMKLDFMPGKGLVHKSLQTRLYSNDQTKSVNVKLLNAPQLINVLDPTKTIDMEVTLGGRSLTTTNSVLEAKTLFPDGKTGDASALLNLDIGQKAGAALQNLPAGEYSGLVSLVISQAVTAGLEHHHHHH	failed
MYTKQHTIKAPVKVSGVGLHTGAQVNLTFVPAPINHGILFKRVDLPDQPVVECDVDNVVDVSRGTSIEKNGARINTVEHALAALVGLQIDNILIELDGPEIPIMDGSSLPFIEAINAIGLEEQNALRNFFEVPHGIFFQDAEKNIELAALPLDDYRVTVMVDYNSPVLGSQHATLNNINQFEKEIASCRTFCFLHELEMLHKQNLIKGGDLNNAIVIVDRIVKDDELDSLAKLFGKDKVEVKKEGILNNIELRYKNEPARHKLLDVVGDLALVGRPLKAQIMAARPGHASNVAFAKKLKRVMMDSRQKAPHYDITQPSVLDVNQIYKLLPHRYPFKLVDKIVHLDENMIIGVKNVTINEPFFEGHFPGNPVMPGVLQIEAMAQTGGIFVMQSVPDPENYWTYFLSIESAKFRRMVVPGDTLVFKCELTAPIKRGIAKMQGQAYVGGNLVCEASLTASIVKKK	failed
MYVFFSKDYLSKQEQSIWEQSFLRGNLMKAVVIGAGEVGYHIAKFLSLTHDVIVIENDEDALRRADELDVQVVEGNGANADILASVLPDVDILVAVTGVDEVNIVACMTAKLILRAHPGWKETKTIARVSNPDYIDVPVTSRAQVGVDIMICPELALASEVAEVLSNPSAIDAEMFAGGKVQMMEFAIRPDNRLVGKRMQDIELEDCCIVSAIFRNNDIIIPHGDDFIKANDHMVVVGKPRAMADLENVFGNEGPHRNRILLIGCGIVGFYLAKIIDKDENADLKVIEYRKSRCIEVAEMLENALILNGDGTDVNLLREENIEDMDVVIAVTDNDEKNLLCSLLAKQMGAKKVIARADRSDYVPLFEMVGIDIAVSPREATVNEVLKLTMGKGIEALATIEGEKAEIIEYTASGQSKIVGKPLSKIKFPKGAIVTMVVHDDDVIIPRGEFIIREGDRVIIFALSSAVRSVEKLFK	failed
MYVIIMGAGRIGTLVAKMLENSGHDVAIIEMNKDRARAVSDIVSGLVIEGDATDQNILESANVRNADAFVALTGKDDANILACILAKHLNPRIMTILRITDPRKKKIFEEVKDLKKYFDVVVSPEDIAANYIFRVVITPGFDRVLLPREGAEIIQFHIDENSKVAGKAVKDLNLPRDSLIIAIYDEKGNLIIPSGETILPKRGTVVVFAKDSALKEIKKIMEEKVEESEE	failed
MYVLIGGAGLVGLTLAQKLVELGHTVAIIDVDHTACRYAREQVGAMAFEGSAVSTEVLLEAGIRKADALAAVLRNDALNLAMVMLAKHYGVSHILSRMRHADFAQPLRLAGANHVISTVELSVSTMVNAIEYPQVESMMHFEQGQIEVLKISIPNSCYVANRSLAEIAQDSRFPSGSLIIGYQPHPHEDLVIPNGSTVLESGSTILIATKPGSLHQVIDFIEGCKLEHHHHHH	not failed
MYYGFDIGGTKIALGVFDSTRRLQWEKRVPTPHTSYSAFLDAVCELVEEADQRFGVKGSVGIGIPGMPETEDGTLYAANVPAASGKPLRADLSARLDRDVRLDNDANCFALSEAWDDEFTQYPLVMGLILGTGVGGGLVLNGKPITGQSYITGEFGHMRLPVDALTLMGFDFPLRRCGCGQMGCIENYLSGRGFAWLYQHYYDQSLQAPEIIALWEQGDEQAHAHVERYLDLLAVCLGNILTIVDPDLLVIGGGLSNFTAITTQLAERLPRHLLPVARAPRIERARHGDAGGMRGAAFLHLTD	not failed
NDPDADRFAVAVRKDDGEYQMLTGDQVGVLFGHYLLSHASADQRLVGTTIVSSSLLSKIANGFGVESYTTLTGFKWLMNVGIAQSQPDNQFLFAYEEALGYTVGNMVWDKDGLSALVAFAQLTAELAAKGQTIWDRLEQIYREQGFHLN	failed
NFDTNMFKLENYVKEKYSLESLEIIPNEFDDTPTILSERISQVAAGVLRNLIDDNMKIGFSWGKSLSNLVDLIHSKSVRNVHFYPLAGGPSHIHAKYHVNTLIYEMSRKFHGECTFMNATIVQENKLLADGILQSRYFENLKNSWKDLDIAVVGIGDFSNKGKHQWLDMLTEDDFKELTKVKTVGEICCRFFDSKGKEVYENLQERTIAISLEDLKNIPQSLAVAYGDTKVSSILSVLRANLVNHLITDKNTILKVLEEDGDL	not failed
NFSNRVQDVIRLSREEALRLGHDYIGTEHLLLGLIREGEGIGAKILKNLKVDLFQLKQKIEENTHPKVPATQMGNVPLTKQAEKVLKITYLEAKICKSTIIGTEHLLLSILKGDDNIAAQILEQFGVTYDQVRDELMTITT	not failed
NFTLAITEAVSEKEIYNKLAENLPKILQADRGSVTLITENKDEFEVFSLQGPEGMLSIGKYFSVDNSLAGLAVQQEKTIISKLNADRIEIDAQQLYQQDLLSIMNSPLQFSDRIIGTVNIGSYKENAYDSTSLELLTLVSTLVSNYLERQHLLEQAQIGVKQYKTYSKQLESLNHVAEELCAATNE	failed
NGKLFLVGTPIGNLKDITLRALETLQNCDVIAAEDTRQSLKLLNHFDIKKPLISYHKFNENNRSSELMDMVREGKKVALVTDAGMPGISDPGSVIVEKFIENNLEFEVIPG	not failed
NIGSAVPRGELVLAMEKIGKLLQERGGSVVIRGHTDGRQFKGEANDNWRLSMDRAHSAYYMLVRGGLSEERVKQVSGFADRRLQVPSNPLADANRRIEILLEADR	failed
